The DeepSol protein solubility set

Test: soluble on expression in E. coli; label from the status in PepcDB or PDB records

Sequence	soluble on expression in E. coli
MSVLEKIDSPADLKKVSNQELEELASEIRTAVLHKVSNIGGHVGPNLGVTELTIALHKVFNSPIDKFIWDVSHQTYPHKILTGRKNGFTDGHFHDITPYTSQRESEHDFFTVGHTSTSIANALGYAKARDLTNDKGNIVAVIGDGSLSGGLAMEALNNAGDFKGNLIILVNDNQMSIAENHGGLYRNLAELRATNGQAENNFFKTFGLDYKYLENGNDIESLIHLFEEVKDIDHPIVLHIHTEKGRGYQPALENKEAFHWHMPFDLETGQSKVIDSGKSYSSVMLDYMDKKVSEGLPLVAINAAIPGIFGLKQFAAKYPDRYIDAGIAEQFTITFGGAMAAAGARPIIFHNSTFVQRAYDQFWHDLAINEEPAIVIVKGGVISGSDETHQGSSAMTWISNIPNIKYLAPTSEEEFISILDWALEQHEEPVVIQMPEHGLESRPTVLTDYSTPSYQMTKSGEKVALLALGGLYSHGEKVAKVLAENGINATLINPLFINDLDQAFLENLVENHQVIATIEDGILDGGFGQKVASFLGKYDVKVLNFGAKREFNDSVPVTELYNRYHLTPELMVADILSLLKLEHHHHHH	not soluble
MGSDKIHHHHHHMRASVSPDIFPPRGHEAKRLSIVDAAAGVFCREGFAGANIDLIAAEAGVSRQTVYNHHGDKEKLFMAVVRDLTDRCNVGIFATIATFPDQPGDLEADLIGFAVRLNQNCICNRDGKFLRKLIQTEGERYPELFAEWREQGPGTTLPAIAARFARLAYGGYLTIDDPDVAARQFFGLVNAELQTTFMLGGTPREDEVVRSATNGVRTFLRAFGKRPAPGSVKKHIALANA	not soluble
MGSDKIHHHHHHMSIRIGISGWRYARWRGTFYPTGLAQRRELAYAGRCFPSVEINGSFYSLQRPESYQSWHDETPDDFVFAVKGPRFVTHMKRLRDCEQALANFFASGVLRLGEKLGPILWQLPPTLRFDDAVLDAFLSSLPRDTEAALALARKRDTTLMHGRTALSIDRKRPLRHALEMRHPSFCDPSCMKLLRKHKVGVVVADTAGKFPYLEDVTADFVYLRLHGDAQLYASGYSDHALDRWGERIAAWAAGGEPSDAQRVGPRASKRARRDVYCYFDNDMKVHAPFDARGLMQRLDLPTDCPAREEVV	not soluble
MLQSLKDVAKQAPVHRKLDIQEWKTAEGAKVLFVEAHELPMFDLRLTFAAGSSQDAGTPGLSMLTNAMLNEGVPGKDTTAIAAGFEDLGASFSNGSYRDMAVAGLRSLSEADKRTQALKLFEQVIGQPTFPEDALARIKNQVLAGFEYQKQNPGKLAGLELFKRLYGEHPYAHSSDGDEKSVPTISREQLQAFHKKAYAAGNVVIALVGDLSRQEAEAIAAEVSKALPQGPALAKTLEHHHHHH	soluble
VDWTDAERSAIVGLWGKISVDEIGPQALARLLIVSPWTQRHFSTFGNLSTPAAIMGNPAVAKHGKTVMHGLDRAVQNLDDIKNTYATLSVMHSEKLHVDPDNFRLLADCITVCVAAKLGPAVFSADTQEAFQKFLAVVVSALGRQYH	soluble
MTDNDAVSAAFAHMRQEAKKRTGTVPNLNRPLPKASKSLADNDATPAVPKQRGMATGPDGRRRRRSYSVQRAGSILSDEIKKRGWRKEIAGGWVNSHWDDLVGAQIAAHTKVEMFKDKALFITCDSTAWATNLRMMQRIILRSISEQIGPDIIVELKIFGPKAPSWRHGPLHVKGRGPRDTYG	not soluble
RDDSTLVIGHNTGALAHRINDPQHAGSIVTAIKQETDLDVTIECVVGTDPKAAGFSEPENKKVWNPEPKPEPKPEPKPEPKPEPEPAPASDNVWGAPAPLGGGQPATPPPPPVERFSPAKATAPQPPAAPQPVQEAPKPRWQQAAERGMRKMEERAKRPSFSDGVPLPPEPEEPDVPPDLYGYPADEGIPEPQTPQATSNYVVDHDEEEEMVREAAQGVGNRDHRDAMTVAVDILSEELGARQL	not soluble
MTHQTHTIAESNNFIVLDKYIKAEPTGDSYQSESDLERELIQDLRNQGYEFISVKSQSAMLANVREQLQNLNGVVFNDSEWRRFTEQYLDNPSDGILDKTRKIHIDYICDFIFDDERLENIYLIDKKNLMRNKVQIIQQFEQAGSHANRYDVTILVNGLPLVQIELKKRGVAIREAFNQIHRYSKESFNSENSLFKYLQLFVISNGTDTRYFANTTKRDKNSFDFTMNWAKSDNTLIKDLKDFTATCFQKHTLLNVLVNYSVFDSSQTLLVMRPYQIAATERILWKIKSSFTAKNWSKPESGGYIWHTTGSGKTLTSFKAARLATELDFIDKVFFVVDRKDLDYQTMKEYQRFSPDSVNGSENTAGLKRNLDKDDNKIIVTTIQKLNNLMKAESDLPVYNQQVVFIFDECHRSQFGEAQKNLKKKFKRYYQFGFTGTPIFPENALGSETTASVFGRELHSYVITDAIRDEKVLKFKVDYNDVRPQFKSLETETDEKKLSAAENQQAFLHPMRIQEITQYILNNFRQKTHRTFPGSKGFNAMLAVSSVDAAKAYYATFKRLQEEAANKSATYKPLRIATIFSFAANEEQNAIGEISDETFDTSAMDSSAKEFLDAAIREYNSHFKTNFSTDSNGFQNYYRDLAQRVKNQDIDLLIVVGMFLTGFDAPTLNTLFVDKNLRYHGLMQAFSRTNRIYDATKTFGNIVTFRDLERSTIDAITLFGDKNTKNVVLEKSYTEYMEGFTDAATGEAKRGFMTVVSELEQRFPDPTSIESEKEKKDFVKLFGEYLRAENILQNYDEFATLKALQQIDLSDPVAVEKFKAEHYVDDEKFAELQTIRLPADRKIQDYRSAYNDIRDWQRREKEAEKKEKSTTDWDDVVFEVDLLKSQEINLDYILGLIFEHNRQNKGKGEMIEEVKRLIRSSLGNRAKEGLVVDFIQQTNLDDLPDKASIIDAFFTFAQREQQREAEALIKEENLNEDAAKRYIRTSLKREYATENGTELNETLPKLSPLNPQYKTKKQAVFQKIVSFIEKFKGVGGKI	soluble
KLEAMKEAEGKEPSETDIKPKRIEEPVLKGFAAPAQTAPAPVSKPAPVAKKKEVEQEAKPGLFSRLFKALGSFLFGGSEEVKEEPKQEEKKSNRDNKRNKRDRNDRRRSNQRDNREGRENRDNRRRRKPREEQANEQNEAQQPANKQQPNRSQKRKPKPQQAEKAQEPKANAKVAEKGLQLAAEARSEVKPEENKAKANAKTEKVKERRQRRKLNKSVRVKDQLADEQVEETAVKAIEPVESQVDQAVDTAADAQQDNKQGESKQRRNRRSPRHLRASGQRRRRGRDRRPNPFRLRKGGVASPEMAMGKVMPRYIPKPAPKKEERVQEETVVAIATVPAMQGGFACPEMAMGKVIIRREQPAVAEAPVVEPKVQETVEAKAESPIVEAVAPEKAEPVAVDQAPVEPIVEVAEAPVAEATTETVVEEAPVQEPVVAETVEEAATEVAVETPVAAPEMKAEVINVVAKPRASAPMTKAPGPQELREIEVAAAPFKAERYQAKGAGSQVATNRASAAMTKPNFN	not soluble
MCGRFTLTVDLLALQDRFHFRYQGSLTPRFNIAPGQDVLTIVAEGGERVGKMMRWGLVPFWAKDARIGAKMINARAETVDEKASFRHAFKRRRCLILADGFFEWKKEGTKKVPYRFTLKTGEPFAFAGLWERWEGASDPIETCTIMTTKANELIAPIHDRMPVMLPYERHDDWLDPRLDDSEYLKSLLSPYPSGEMRMYEVAPLVNSPKNDVIACIEPVDSRSMEGT	not soluble
MAPQMEKVSEELILPSSPTPQSLKCYKISHLDQLLLTCHIPFILFYPNPLDSNLDPAQTSQHLKQSLSKVLTHFYPLAGRINVNSSVDCNDSGVPFVEARVQAQLSQAIQNVVELEKLDQYLPSAAYPGGKIEVNEDVPLAVKISFFECGGTAIGVNLSHKIADVLSLATFLNAWTATCRGETEIVLPNFDLAARHFPPVDNTPSPELVPDENVVMKRFVFDKEKIGALRAQASSASEEKNFSRVQLVVAYIWKHVIDVTRAKYGAKNKFVVVQAVNLRSRMNPPLPHYAMGNIATLLFAAVDAEWDKDFPDLIGPLRTSLEKTEDDHNHELLKGMTCLYELEPQELLSFTSWCRLGFYDLDFGWGKPLSACTTTFPKRNAALLMDTRSGDGVEAWLPMAEDEMAMLPVELLSLVDSDFSK	soluble
MAVRFASLGSGSDGNALLVESTDGTTSTRILLDCGFGIRETVRRLERLGCAPASLDAILVTHEHGDHIGSAYAFAAKYSVPVWTSHGTYRATASLRGADRAAVRFCRADDAFSIGDLRILPYTVPHDAREPLQFIFDDGARRLGVLTDAGMSTEYLCGHLTGLHAFVLECNHDREMLANSAYPWSLKQRIGGDFGHLANDIAAAILARVRHDGLHTVVAAHLSKQNNTPELAAAAIASALGVPAGDVPIADQEAGLGWQAVLEHHHHHH	not soluble
MAGLIPQSFIDDLLNRTDIVEVVSSRIQLKKTGKNYSACCPFHKEKTPSFTVSPDKQFYYCFGCGAGGNALGFVMDHDQLEFPQAVEELAKRAGMDVPREERGGRGHTPRQPTDSPLYPLLSAAAEFYKQALKSHPARKAAVNYLKGRGLTGEIARDFGLGFAPPGWDNLLKHLGGDNLQLKAMLDAGLLVENSDTGKRYDRFRDRVMFPIRDSRGRIIAFGGRVLGDDKPKYLNSPETPVFHKGQELYGLYEARQKNRDLDEIMVVEGYMDVIALAQQGIRNAVATLGTATSEEHIKRLFRLVPSILFCFDGDQAGRKAAWRALESVLPNLQDGKRVRFLFLPEGEDPDSLVRAEGEDAFRARITQQAQPLAEYFFQQLMLEADPATLEGKAHLATLAAPLLEKIPGNNLRLLMRQRLSEITGLSGENIGQLAHHSPPPSSMDHGASGVLDGDDYFAASAYYENEPSHAPFDAAPGYVEAQPRKSWNKDKKPWDGKKWDGKKKWDKGGRGDFKAPQRTPVSVESTTLNALRTLLHHPQLALKVDDAGTLAREQDTYAQLLVSLLEALQKNPRQSSMQLIARWHGTPQGRLLQALGEKEWLIVQENLEKQFFDTITKLSESQRFGEREERLRSVMQKSYSELTDEEKALLREHYSVAASSP	not soluble
MAHHHHHHMMSNTTSSGKGPTTFMWNSVPPSGDMPLHGCCHSLANYKDEQLILFGGGALHIIFNDVYCFDLKTSTWSYKETTNSEIVAPRISHSAVVHEDKMYVYGGQDLYMPTRFADVLVLDLITFTWSLIQQQATPAPDGPGDRRLHTAHIYRNCMYVLMGEPCNISNSFWFLDLTTLEWHPVHSSGWFGKPILPLLGHSAQVEGDYLYVFGGYHADSARRNGSPVYNNSLFSYHFPSNTWREVVPSSGPRPSPRYASAMAVIRGRVFIYGGDVDGEVYFDDFWCIDTNIPSSAASQSSSSSSYTTSLVAAPPAASSRWIDITLSCGRGRPSARSGHASAVAQGCLFVVGGELPGDRDVVYYSNRTYRYPLGYLTRLSLVELSSLWLAKCNPANIWMLDTQIPRHVRQLLVRNLNAQDRESTDDMMPCTRVVC	not soluble
MSVWLLQMKTNAIITDITKSIVKMDRILVYRHTNPDPDAIGAQFGLVALLKAAYPEKLVVAMAPVPGHLAWIDTTDEQLVTPQATDLVIAVDCANHERLAGELPTGAFVIKIDHHPNHDPYGQLNWVDETYSSCSEMIYELAQAGCFTVTAAVATKLYAGIIGDTVRFSTPETSTRTLKIASALAATDIDIATISHHEMDLTPALSKLYGYVLSEQTIEPSGLAHVVLPQRIFSDLSLEYGDEDALVPLPGNLTTVKVWLFFIETPQGQYRVHFRSKAINVNAVAKAFNGGGHPLASGAFVPDLATVGQVIEQMQAQVLAATAVDLEHHHHHH	not soluble
MAGDPMERIESRRARTVRQMLNIRKITYLEKTRKGIEMNSKTIGIDIGGANTKLASSDGTIVELHYLPLWKNTMLPEVLKEISQRLKPENVAVVMTGELADCFEDKEQGIRFIKENVDSAFGSGKVSYINSQGRFRKENDPLRDLAAANWAASARLIGEEIGDCIFVDVGSTTSDIIPVISGEHRAGHTDFERLLRSELVYAGTLRTNLAALLEKVKLEKGICRTSSELFATTADAYLILGEINEDKYTCETADGVGRSKIEAMRRIARLVCADLSEVGETEVYEIAEQVKEKQVSALTEAISEVAERNRLEKIAAAGLGEFLISEAAERLGFECISVAGRWGEEISKVFPAYAAARLLDKYSELEHHHHHH	not soluble
